Assay results taken from paper doi:10.1101/589580 (bioRxiv, 2019).
No end group written: not given here.

B1: transcription factor ZONAB (natural protein)
chain: not shown
B2: endogenous ZO2 with N-terminal mNeonGreen (CRISPR knock-in, MDCK-II) (natural protein, dog (endogenous in MDCK-II), UniProt Q95168 1-1174, looked up)
chain: MEELIWEQYTVTLQKDSKRGFGIAVSGGRDNPHFENGETSIVISDVLPGGPADGLLQENDRVVMVNGTPMEDVLHSFAVQQLRKSGKIAAIVVKRPRKVQLAPPQGSLPVDEDDRAFEVMDEFDGRSARSGYSERSRRSSHGGRSRSWEDSPERGRPHERAWSQERERSRGRSLERGLDHDDDYRRPRERSRGRSLERGLDHDDDYGRPGERSHGMSTDRGYDRGYDRGYDRGYDRTYSPEAEYGRRTQPDARHAGSRSRSREHLRSRSPSPELRGRPDHAGQPDSDRPIGVLLMKSKANEEYGLRLGSQIFIKQMTRTALATKDGNLHEGDIILKINGTVTENMSLTDARKLIEKSRGKLQLVVLRDSKQTLINIPSLNDSDSEIEDISEIESNRSFSPEERRQQYSDYDYHSSNEKLKERPNSREDMQNRWSRMGATPTPFKSMGDIASVVGTENSKEPRYQEEPPAPQPKAAPRTFLRPSPEDEAIYGPNTKMVRFKKGDSVGLRLAGGNDVGIFVAGIQEGTSAEQEGLQEGDQILKVNTQDFRGLVREDAVLYLLEIPKGEMVTILAQSRADVYRDILACGRGDSFFIRSHFECEKETPQSLAFSRGEVFRVVDTLYDGKLGHWLAVRIGNELEKGLIPNKSRAEQMASVQNAQRDNAGDRADFWRMRGQRSGMKKNLRKSREDLTAAVSVSTKFPAYERVLLREAGFKRPVVLFGPIADIALEKLANELPDLFQTAKTEPKDAGSEKSSGVVRLNTVRQIIEQDKHALLDVTPKAVDLLNYTQWFPIVIFFNPDSRQGVKTMRQRLNPTSNKSSRKLYDQANKLKKTCAHLFTATINLNSANDSWFGSLKDTIQHQQGEAVWVSEGKMEGMDDDPEDRMSYLTAMGADYLSCDSRLISDFEDTDGEGGAYTDNELDEPAEEPLVSSITRSSEPVQHEESIRKPSPEPRAQMRRAASRDQLRDSSPPPAFKPEPPKAKTQNREESFDISRSHDYKSNPSAVAGNEVSGASTRSCPPPIAAKPSFGRSILKPSTPVPSPESEEVGEGSEEQEGAPKSVLGKVKIFEKMDHKARLQRMQELQEAQNARIEIAQKHPDIYAVPIKTHKPDPGLSQHTSSRPPEPQKGPSRLYQDPRGSYGSDAEEEEYRQQLSEHSKRGYYSQPSRYRDTEL
B3: afadin (natural protein, UniProt P55196 1-1824, looked up)
chain: MSAGGRDEERRKLADIIHHWNANRLDLFEISQPTEDLEFHGVMRFYFQDKAAGNFATKCIRVSSTATTQDVIETLAEKFRPDMRMLSSPKYSLYEVHVSGERRLDIDEKPLVVQLNWNKDDREGRFVLKNENDAIPPKKAQSNGPEKQEKEGVIQNFKRTLSKKEKKEKKKREKEALRQASDKDDRPFQGEDVENSRLAAEVYKDMPETSFTRTISNPEVVMKRRRQQKLEKRMQEFRSSDGRPDSGGTLRIYADSLKPNIPYKTILLSTTDPADFAVAEALEKYGLEKENPKDYCIARVMLPPGAQHSDEKGAKEIILDDDECPLQIFREWPSDKGILVFQLKRRPPDHIPKKTKKHLEGKTPKGKERADGSGYGSTLPPEKLPYLVELSPGRRNHFAYYNYHTYEDGSDSRDKPKLYRLQLSVTEVGTEKLDDNSIQLFGPGIQPHHCDLTNMDGVVTVTPRSMDAETYVEGQRISETTMLQSGMKVQFGASHVFKFVDPSQDHALAKRSVDGGLMVKGPRHKPGIVQETTFDLGGDIHSGTALPTSKSTTRLDSDRVSSASSTAERGMVKPMIRVEQQPDYRRQESRTQDASGPELILPASIEFRESSEDSFLSAIINYTNSSTVHFKLSPTYVLYMACRYVLSNQYRPDISPTERTHKVIAVVNKMVSMMEGVIQKQKNIAGALAFWMANASELLNFIKQDRDLSRITLDAQDVLAHLVQMAFKYLVHCLQSELNNYMPAFLDDPEENSLQRPKIDDVLHTLTGAMSLLRRCRVNAALTIQLFSQLFHFINMWLFNRLVTDPDSGLCSHYWGAIIRQQLGHIEAWAEKQGLELAADCHLSRIVQATTLLTMDKYAPDDIPNINSTCFKLNSLQLQALLQNYHCAPDEPFIPTDLIENVVTVAENTADELARSDGREVQLEEDPDLQLPFLLPEDGYSCDVVRNIPNGLQEFLDPLCQRGFCRLIPHTRSPGTWTIYFEGADYESHLLRENTELAQPLRKEPEIITVTLKKQNGMGLSIVAAKGAGQDKLGIYVKSVVKGGAADVDGRLAAGDQLLSVDGRSLVGLSQERAAELMTRTSSVVTLEVAKQGAIYHGLATLLNQPSPMMQRISDRRGSGKPRPKSEGFELYNNSTQNGSPESPQLPWAEYSEPKKLPGDDRLMKNRADHRSSPNVANQPPSPGGKSAYASGTTAKITSVSTGNLCTEEQTPPPRPEAYPIPTQTYTREYFTFPASKSQDRMAPPQNQWPNYEEKPHMHTDSNHSSIAIQRVTRSQEELREDKAYQLERHRIEAAMDRKSDSDMWINQSSSLDSSTSSQEHLNHSSKSVTPASTLTKSGPGRWKTPAAIPATPVAVSQPIRTDLPPPPPPPPVHYAGDFDGMSMDLPLPPPPSANQIGLPSAQVAAAERRKREEHQRWYEKEKARLEEERERKRREQERKLGQMRTQSLNPAPFSPLTAQQMKPEKPSTLQRPQETVIRELQPQQQPRTIERRDLQYITVSKEELSSGDSLSPDPWKRDAKEKLEKQQQMHIVDMLSKEIQELQSKPDRSAEESDRLRKLMLEWQFQKRLQESKQKDEDDEEEEDDDVDTMLIMQRLEAERRARLQDEERRRQQQLEEMRKREAEDRARQEEERRRQEEERTKRDAEEKRRQEEGYYSRLEAERRRQHDEAARRLLEPEAPGLCRPPLPRDYEPPSPSPAPGAPPPPPQRNASYLKTQVLSPDSLFTAKFVAYNEEEEEEDCSLAGPNSYPGSTGAAVGAHDACRDAKEKRSKSQDADSPGSSGAPENLTFKERQRLFSQGQDVSNKVKASRKLTELENELNTK
B4: cingulin (natural protein, UniProt Q9P2M7 1-1203, looked up)
chain: MEQAPNMAEPRGPVDHGVQIRFITEPVSGAEMGTLRRGGRRPAKDARASTYGVAVRVQGIAGQPFVVLNSGEKGGDSFGVQIKGANDQGASGALSSDLELPENPYSQVKGFPAPSQSSTSDEEPGAYWNGKLLRSHSQASLAGPGPVDPSNRSNSMLELAPKVASPGSTIDTAPLSSVDSLINKFDSQLGGQARGRTGRRTRMLPPEQRKRSKSLDSRLPRDTFEERERQSTNHWTSSTKYDNHVGTSKQPAQSQNLSPLSGFSRSRQTQDWVLQSFEEPRRSAQDPTMLQFKSTPDLLRDQQEAAPPGSVDHMKATIYGILREGSSESETSVRRKVSLVLEKMQPLVMVSSGSTKAVAGQGELTRKVEELQRKLDEEVKKRQKLEPSQVGLERQLEEKTEECSRLQELLERRKGEAQQSNKELQNMKRLLDQGEDLRHGLETQVMELQNKLKHVQGPEPAKEVLLKDLLETRELLEEVLEGKQRVEEQLRLRERELTALKGALKEEVASRDQEVEHVRQQYQRDTEQLRRSMQDATQDHAVLEAERQKMSALVRGLQRELEETSEETGHWQSMFQKNKEDLRATKQELLQLRMEKEEMEEELGEKIEVLQRELEQARASAGDTRQVEVLKKELLRTQEELKELQAERQSQEVAGRHRDRELEKQLAVLRVEADRGRELEEQNLQLQKTLQQLRQDCEEASKAKMVAEAEATVLGQRRAAVETTLRETQEENDEFRRRILGLEQQLKETRGLVDGGEAVEARLRDKLQRLEAEKQQLEEALNASQEEEGSLAAAKRALEARLEEAQRGLARLGQEQQTLNRALEEEGKQREVLRRGKAELEEQKRLLDRTVDRLNKELEKIGEDSKQALQQLQAQLEDYKEKARREVADAQRQAKDWASEAEKTSGGLSRLQDEIQRLRQALQASQAERDTARLDKELLAQRLQGLEQEAENKKRSQDDRARQLKGLEEKVSRLETELDEEKNTVELLTDRVNRGRDQVDQLRTELMQERSARQDLECDKISLERQNKDLKTRLASSEGFQKPSASLSQLESQNQLLQERLQAEEREKTVLQSTNRKLERKVKELSIQIEDERQHVNDQKDQLSLRVKALKRQVDEAEEEIERLDGLRKKAQREVEEQHEVNEQLQARIKSLEKDSWRKASRSAAESALKNEGLSSDEEFDSVYDPSSIASLLTESNLQTSSC

Experiments:
[1] = target: full-length ZO1 with C-terminal mEGFP (UniProt Q07157 1-1748); test: client partitioning into phase-separated droplets
Sequence of full-length ZO1 with C-terminal mEGFP (Q07157 whole entry): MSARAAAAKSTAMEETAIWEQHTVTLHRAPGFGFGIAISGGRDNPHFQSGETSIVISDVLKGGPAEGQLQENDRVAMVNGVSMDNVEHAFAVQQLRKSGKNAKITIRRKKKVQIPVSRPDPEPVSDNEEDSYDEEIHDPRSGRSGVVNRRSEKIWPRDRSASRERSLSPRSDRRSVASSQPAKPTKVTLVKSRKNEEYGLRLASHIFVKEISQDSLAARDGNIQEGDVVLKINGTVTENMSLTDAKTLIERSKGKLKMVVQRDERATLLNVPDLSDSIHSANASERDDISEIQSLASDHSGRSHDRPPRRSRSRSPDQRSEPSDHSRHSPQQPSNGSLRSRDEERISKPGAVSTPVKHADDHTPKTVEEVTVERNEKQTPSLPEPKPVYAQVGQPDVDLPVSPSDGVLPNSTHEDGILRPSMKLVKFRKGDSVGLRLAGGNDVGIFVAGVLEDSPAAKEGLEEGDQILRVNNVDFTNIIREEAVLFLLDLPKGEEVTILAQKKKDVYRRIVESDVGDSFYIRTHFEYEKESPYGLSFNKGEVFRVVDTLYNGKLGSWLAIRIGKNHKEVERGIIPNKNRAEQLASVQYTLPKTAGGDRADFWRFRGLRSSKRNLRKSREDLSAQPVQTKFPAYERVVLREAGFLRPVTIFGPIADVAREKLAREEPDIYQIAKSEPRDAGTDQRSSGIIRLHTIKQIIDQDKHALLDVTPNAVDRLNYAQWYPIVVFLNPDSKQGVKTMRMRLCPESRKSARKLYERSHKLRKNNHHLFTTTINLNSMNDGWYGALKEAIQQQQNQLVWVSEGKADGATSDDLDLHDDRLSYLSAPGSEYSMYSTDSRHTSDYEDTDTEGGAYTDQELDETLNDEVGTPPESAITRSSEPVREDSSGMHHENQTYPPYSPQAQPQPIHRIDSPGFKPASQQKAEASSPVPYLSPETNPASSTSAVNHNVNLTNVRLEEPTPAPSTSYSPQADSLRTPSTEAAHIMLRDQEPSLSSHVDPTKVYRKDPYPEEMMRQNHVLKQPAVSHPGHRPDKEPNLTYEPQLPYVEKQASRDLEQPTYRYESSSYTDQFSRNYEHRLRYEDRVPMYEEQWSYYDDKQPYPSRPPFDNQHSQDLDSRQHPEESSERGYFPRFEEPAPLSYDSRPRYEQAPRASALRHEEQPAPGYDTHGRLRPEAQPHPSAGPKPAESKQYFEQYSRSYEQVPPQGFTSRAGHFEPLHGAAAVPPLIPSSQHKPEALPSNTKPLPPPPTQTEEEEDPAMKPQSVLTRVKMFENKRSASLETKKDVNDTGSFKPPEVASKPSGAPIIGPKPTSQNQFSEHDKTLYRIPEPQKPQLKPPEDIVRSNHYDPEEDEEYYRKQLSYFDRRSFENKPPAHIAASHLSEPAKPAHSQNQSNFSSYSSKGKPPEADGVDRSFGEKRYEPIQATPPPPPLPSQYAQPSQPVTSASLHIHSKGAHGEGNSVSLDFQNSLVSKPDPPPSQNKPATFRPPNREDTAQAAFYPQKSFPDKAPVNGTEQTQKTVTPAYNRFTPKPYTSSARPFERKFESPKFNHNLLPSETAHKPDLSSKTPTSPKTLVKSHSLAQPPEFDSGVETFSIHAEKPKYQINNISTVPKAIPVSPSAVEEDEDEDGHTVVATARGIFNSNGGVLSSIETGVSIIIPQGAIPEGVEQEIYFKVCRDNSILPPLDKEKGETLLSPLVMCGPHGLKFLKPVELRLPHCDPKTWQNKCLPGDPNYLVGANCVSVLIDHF

FCS molecular brightness = target: the molecule itself; test: FCS molecular brightness

Row | Binder | partitioning (client fluorescence inside/outside ZO1 droplets) [1] | stoichiometry N (FCS molecular brightness)
1 | SCPRKTTSYPTPRPYPKPAPSSGKDYV (also: CoA-DY647 on YBBR-tag, labelled with PPTase Sfp, tag not in given chain) [C-terminal tail of claudin-1] | 44 fold | –
2 | B1 | 20 fold | –
3 | B2 | – | 1.5
4 | B3 | 28 fold | –
5 | B4 | 25 fold | –
